According to patent US20260185108A1 (Johns Hopkins, published 2026):

Assays:
[1] = target: T1, CD63/Y235A (on F/YA24 cells) (UniProt P08962 2-238, limits assumed); assay: flow cytometry of CP05-Cy5 on F/YA24 cells against 293F and 293F/CD63-/- cells
T1 construct: whole, on cells; F/YA24 cells also carry the endogenous CD63 of 293F cells; also called mutant form of CD63
T1 sequence (looked up): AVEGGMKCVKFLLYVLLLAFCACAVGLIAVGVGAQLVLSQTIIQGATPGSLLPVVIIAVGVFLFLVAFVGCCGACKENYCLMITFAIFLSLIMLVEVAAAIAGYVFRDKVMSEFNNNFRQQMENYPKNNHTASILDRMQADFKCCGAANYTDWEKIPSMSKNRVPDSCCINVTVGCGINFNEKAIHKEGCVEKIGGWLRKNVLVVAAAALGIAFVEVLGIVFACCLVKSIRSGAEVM
Method: (§1) For measurement of surface CD63 abundance and Cy5-CP05 peptide binding, cells were washed in HBSS, released from tissue culture plates using trypsin/EDTA solution, and resuspended at a concentration of 1×10^7 cells per ml in HBSS. Cell suspensions were maintained on ice, diluted to a concentration of 1×10^6 cells per ml, incubated with either (i) fluorescently labeled anti-CD63 antibody (catalog no.: 353006; BioLegend) or (ii) CY5-labeled CP05 peptide (NH2-[…](K/Cy5)-amide; Vivitide; molecular weight=[…]). Following the binding reaction, cells were washed five times in PBS and then examined by flow cytometry on a Beckman CytoFlex flow cytometer set at the appropriate excitation and emission wavelengths. The relative brightness was determined for thousands of individual cells in each cell line using Beckman CytExpert software (version 2.3.1.22) to calculate average brightness and CV as well as to generate scatter plots and histograms.
(§2) To determine whether these mutations led to a drop in the cell surface expression of CD63, cell lines were interrogated: the 293F/CD63^{-/-} cell line, the parental 293F cell line, and the F/YA24 cell line by flow cytometry, using a commercially available fluorescently tagged monoclonal anti-CD63 antibody. […]

[2] = target: T2, CD63 (endogenous, on WT 293F cells) (UniProt P08962 2-238, limits assumed); assay: flow cytometry of CP05-Cy5 on WT 293F cells against 293F/CD63-/- cells
T2 construct: whole, on cells; Compared with the 293F/CD63-/- knockout line as the negative control; also called WT CD63
T2 sequence (looked up): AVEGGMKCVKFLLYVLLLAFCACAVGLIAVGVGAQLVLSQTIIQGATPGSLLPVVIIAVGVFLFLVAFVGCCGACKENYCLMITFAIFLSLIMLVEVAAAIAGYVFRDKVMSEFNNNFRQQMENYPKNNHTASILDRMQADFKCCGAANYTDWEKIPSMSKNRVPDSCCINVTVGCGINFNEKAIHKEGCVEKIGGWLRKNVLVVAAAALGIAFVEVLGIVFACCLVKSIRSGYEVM
Method: as §1, §2

B1: Cy5-labeled CP05 peptide (NH2-CRHSQMTVTSRL(K/Cy5)-amide) (peptide)
peptide: H-CRHSQMTVTSRLK(Cy5)-NH2
notes: Synthetic peptide (Vivitide); the labeled peptide used in the assay has one more Lys(Cy5) and a C-terminal amide; also called CP05-Cy5; Cy5-CP05 peptide
- binding result [1]: no binding (tested: 0.34 µM and 3.4 µM CP05-Cy5)
- binding result [2]: no binding (tested: 0.34 µM and 3.4 µM CP05-Cy5)
